Assays:
[1] = tested on: TG neuronal cells; assay: Cell viability assay (Live/Dead) of TG neuronal cells; format: cell-based, mouse; settings: 50 ng/ml single dose on first day of culture without serum; day 2 and 3
Procedure: The effect of VEGF-B on the survival of TG neuronal cells was evaluated with the Live/Dead Viability/Cytotoxicity kit (Invitrogen), as described in Pan, Z., Fukuoka et al., FASEB J. 27, 2756-2767 (2013).

[2] = tested on: corneal nerves of C57BL/6 and Vegf-b−/− mice; assay: Corneal nerve regeneration after epithelial debridement, subconjunctival injection; format: in vivo, mouse; settings: 0.5 ng subconjunctival single bolus, 7 days after debridement
Procedure: Wild type C57BL/6 and Vegf-b^-/- mice were subject to corneal epithelial debridement as described above or left intact. A 5 ul volume containing 0.5 ng VEGF-B^186 in PBS was injected subconjunctivally, at the lateral temporal bulbar conjunctiva, using a 10-μl micro-syringe (Hamilton Co). Equal volume of 0.1% bovine serum albumin (BSA) was used in control mice. The recovery of the corneal epithelial injury was imaged at 24, 40 and 48 hours by applying 1% fluorescein solution to the corneal surface and wounds photographed under diffuse cobalt blue light attached to a slit lamp bio-microscope (Nikon FS-3, Nikon) connected to a digital camera (Canon EOS 60D). The corneal epithelial defect areas were quantified by analyzing the images with Photoshop CS4 (Adobe). Corneas were harvested after one week for immunodetection of nerves. Possible growth of blood vessel into the cornea was monitored by slit lamp examination. […] The YFP fluorescent nerves were imaged with a fluorescence microscope at the site of pellet implantation and at a site 180 degrees opposite to the pellet. Images were analyzed using Neurolucida. […] Quantification of corneal nerves regeneration was obtained from corneal wholemount images traced and analyzed with Neurolucida 9 software. […] Central and peripheral cornea nerve densities were calculated and expressed as a percentage of control.

[3] = tested on: corneal sensation of C57BL/6 and Vegf-b−/− mice; assay: Corneal nerve sensation testing (von Frey Hairs); format: in vivo, mouse
Procedure: The degree of recovered nerve sensation in the injured cornea was evaluated using calibrated von Frey Hairs (North Coast Medicals). In this method the center of the cornea of un-anesthetized mouse was touched with thin filaments of ascending stiffness (0.008 to 1.4 g) until the hairs buckled and a blink response was elicited. C57BL/6 wild type and Vegf-b^−/− mice subjected to corneal epithelial debridement and receiving subconjuntival injection of VEGF-B, as well as their respective controls, were evaluated to determine the minimal force (g) needed for a blink response. Eight mice were tested in each group in three individual experiments.

[4] = tested on: corneal epithelium of C57BL/6 and Vegf-b−/− mice; assay: Corneal epithelial wound healing after debridement (fluorescein staining); format: in vivo, mouse; settings: 0.5 ng subconjunctival, 48 hours (FIG. 6A)
Procedure: (§1) Wild type C57BL/6 and Vegf-b^−/− mice were subject to corneal epithelial debridement as described above or left intact. A 5 ul volume containing 0.5 ng VEGF-B^186 in PBS was injected subconjunctivally, at the lateral temporal bulbar conjunctiva, using a 10-μl micro-syringe (Hamilton Co). Equal volume of 0.1% bovine serum albumin (BSA) was used in control mice. The recovery of the corneal epithelial injury was imaged at 24, 40 and 48 hours by applying 1% fluorescein solution to the corneal surface and wounds photographed under diffuse cobalt blue light attached to a slit lamp bio-microscope (Nikon FS-3, Nikon) connected to a digital camera (Canon EOS 60D). The corneal epithelial defect areas were quantified by analyzing the images with Photoshop CS4 (Adobe). Corneas were harvested after one week for immunodetection of nerves. Possible growth of blood vessel into the cornea was monitored by slit lamp examination.

[5] = tested on: corneal nerves of Thy-1-YFP mice; assay: Corneal nerve regeneration with combinations of VEGF-A and VEGF-B; format: in vivo, mouse; settings: ligand administered separately, two weeks post-injury (FIG. 14)
Procedure: Thy-1-YFP mice were subjected to cornea epithelium debridement to ablate the superficial nerve endings that innervate the cornea Immediately after injury, the mice were treated with different combinations of VEGF-A and VEGF-B. As shown, combinations of VEGF ligands induce greater nerve regeneration in vivo.
The observed effects were also recapitulated in vivo. Thy-1-YFP neurofluorescent mice were used to induce a corneal epithelium injury that results in ablation of the superficial nerve endings of the cornea. The mice were then treated with different combinations of VEGF-A and VEGF-B, and nerve regeneration was analyzed after two weeks post-injury.

[6] = tested on: cornea; settings: mouse, in vivo
Procedure: as §1

[7] = tested on: trigeminal ganglion (TG) neuronal cells; assay: Trigeminal ganglion neuronal growth assay; format: cell-based, mouse; settings: VEGF-B on three consecutive days, culture day 6 (FIG. 11)

B1: recombinant mouse VEGF-B^186 (protein, listed as Homo sapiens)
chain: MSPLLRRLLLAALLQLAPAQAPVSQPDAPGHQRKVVSWIDVYTRATCQPREVVVPLTVELMGTVAKQLVPSCVTVQRCGGCCPDDGLECVPTGQHQVRMQILMIRYPSSQLGEMSLEEHSQCECRPKKKDSAVKPDRAATPHHRPQPRSVPGWDSAPGAPSPADITHPTPAPGPSAHAAPSTTSALTPGPAAAAADAAASSVAKGGA
notes: vascular endothelial growth factor B; recombinant mouse VEGF-B186 (R&D 767-VE-010)
- cells surviving (neuronal viability) [1]: 50%
- corneal nerve regeneration into the injured zone ([2]; Vegf-b−/− mice): confined to the peripheral cornea
- corneal nerve regeneration into the injured zone ([2]; wild-type mice): enhanced nerve regeneration in both the central and peripheral corneas
- corneal sensation compared with untreated Vegf-b−/− mice ([3]; Vegf-b−/− mice, 2 weeks post-injury (FIG. 4F)): significantly improved sensation
- functional recovery of corneal sensation ([3]; wild type and Vegf-b−/− mice, 7 days of treatment (FIG. 4E)): began to improve
- corneal sensation ([3]; wild-type mice, 2 weeks post-injury (FIG. 4F)): completely restored
- injured epithelial area compared with untreated controls ([4]; Vegf-b−/− mice): only half the injured area
- epithelial healing ([4]; wild type mice): almost complete healing
- nerve regeneration [5]: induced greater nerve regeneration
- neovascularization of the cornea [6]: did not produce any unwanted neovascularization
- dendrite length and branching [7]: longer dendrites and more branches

Source: patent US9987329B2, “Methods for treating peripheral nerve damage” (Cornell University, priority 2014, dated 2018)
